Source: patent US20170029530A1 (AbbVie / Abbott, published 2017)

T1: rat DPEP3 ECD with histidine tag (rat, UniProt Q5U2X4 36-459, limits assumed)
T1 construct: also called rDPEP3-His; ratDPEP3-His; not shown: histidine tag
T1 sequence: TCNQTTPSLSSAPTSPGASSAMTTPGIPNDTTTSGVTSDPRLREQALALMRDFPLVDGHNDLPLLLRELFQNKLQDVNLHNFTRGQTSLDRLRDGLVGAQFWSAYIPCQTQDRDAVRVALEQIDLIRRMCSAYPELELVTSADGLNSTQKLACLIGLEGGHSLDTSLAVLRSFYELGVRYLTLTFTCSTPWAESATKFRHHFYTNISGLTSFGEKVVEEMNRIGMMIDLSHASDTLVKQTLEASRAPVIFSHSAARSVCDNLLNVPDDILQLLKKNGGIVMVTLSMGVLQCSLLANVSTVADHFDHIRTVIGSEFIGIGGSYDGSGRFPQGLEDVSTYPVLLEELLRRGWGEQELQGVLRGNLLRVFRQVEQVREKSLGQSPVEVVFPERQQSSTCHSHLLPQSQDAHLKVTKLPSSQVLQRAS

T2: hDPEP1-His (human, UniProt P16444 17-385, limits assumed)
T2 construct: Neither the origin nor the limits of this protein are described; not shown: histidine tag
T2 sequence (looked up): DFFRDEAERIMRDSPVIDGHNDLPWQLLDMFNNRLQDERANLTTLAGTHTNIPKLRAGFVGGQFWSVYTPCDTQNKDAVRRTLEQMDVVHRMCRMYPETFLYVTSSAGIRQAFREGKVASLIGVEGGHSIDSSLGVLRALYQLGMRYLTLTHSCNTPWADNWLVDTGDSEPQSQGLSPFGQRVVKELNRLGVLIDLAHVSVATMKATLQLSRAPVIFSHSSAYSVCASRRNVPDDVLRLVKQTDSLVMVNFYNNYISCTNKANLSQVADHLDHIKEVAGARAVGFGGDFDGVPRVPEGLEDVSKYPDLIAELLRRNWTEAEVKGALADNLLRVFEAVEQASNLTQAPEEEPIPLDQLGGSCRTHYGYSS

T3: mDPEP3 (limits assumed)
T3 construct: also called mouse DPEP3-His; mouse DPEP3 ECD with histidine tag
T3 single chain: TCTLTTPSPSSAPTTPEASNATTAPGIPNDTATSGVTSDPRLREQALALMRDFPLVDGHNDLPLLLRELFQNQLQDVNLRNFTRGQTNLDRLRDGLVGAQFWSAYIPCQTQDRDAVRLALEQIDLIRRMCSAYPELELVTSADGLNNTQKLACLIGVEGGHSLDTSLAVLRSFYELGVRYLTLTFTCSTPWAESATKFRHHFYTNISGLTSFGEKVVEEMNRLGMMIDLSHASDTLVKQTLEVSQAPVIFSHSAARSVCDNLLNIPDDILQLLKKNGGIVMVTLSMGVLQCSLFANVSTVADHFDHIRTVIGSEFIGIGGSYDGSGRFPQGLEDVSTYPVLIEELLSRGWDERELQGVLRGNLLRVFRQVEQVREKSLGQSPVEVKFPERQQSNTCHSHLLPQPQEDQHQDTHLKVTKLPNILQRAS

T4: human DPEP3 (hDPEP3) protein on the cell surface (human, UniProt Q9H4B8 36-463, GPI anchor at the C-terminus after removal of the final 25 amino acids)
T4 construct: The assay field says which
T4 sequence: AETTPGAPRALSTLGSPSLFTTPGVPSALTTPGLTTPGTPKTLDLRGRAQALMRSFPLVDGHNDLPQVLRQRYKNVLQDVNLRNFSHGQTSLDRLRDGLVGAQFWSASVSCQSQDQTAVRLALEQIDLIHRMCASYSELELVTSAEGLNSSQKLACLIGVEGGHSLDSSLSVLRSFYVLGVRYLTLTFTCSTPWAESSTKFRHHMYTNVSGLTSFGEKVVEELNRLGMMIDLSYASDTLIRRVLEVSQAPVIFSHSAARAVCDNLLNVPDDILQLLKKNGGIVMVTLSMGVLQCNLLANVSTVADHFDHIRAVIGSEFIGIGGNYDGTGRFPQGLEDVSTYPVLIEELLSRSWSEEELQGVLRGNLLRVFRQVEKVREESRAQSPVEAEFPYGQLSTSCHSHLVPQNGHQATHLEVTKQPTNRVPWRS

B1: hSC34.14 humanized anti-DPEP3 antibody (antibody, human IgG1, kappa, V domains shown)
VH: QVQLVQSGAEVKKPGASVKVSCKASGYTFTDYYMHWVRQAPGQRLEWMGRVNPKKGGTTYNQKFEGRVTITRDTSASTAYMELSSLRSEDTAVYYCAMGIYYSYDASFDYWGQGTTVTVSS
VL: DIQMTQSPSSLSASVGDRVTITCRTSEHIYSYLAWYQQKPGKAPKLLIYNAKTLAEGVPSRFSGSGSGTDFTLTISSLQPEDFATYYCQHHYDTPYTFGQGTKLEIKR
notes: Human IgG1/kappa
B2: SC34.36 (antibody, mouse IgG2a, V domains shown)
VH: QVQLQQPGSVLVRPGASVKLSCKASGYTFTSYWMHWVKQRPGQGLEWIGEISPTSGRPNYNAKFKGKATLTVDTSSSTAYVDLSSLTSEDSAVYYCAKGEGYYGKAFDYWGQGTTLTVSS
VL: DIQMTQTTSSLSASLGDRVTISCRASQDISNYLNWYQQKPDGTVKLLIYYTSRLHSGVPSRFSGSGSGTDYSLTISNLEQEDIATYFCQQGNTLPWTFGGGTKLEIK

Legend:
[1] = target: T1, rat DPEP3 ECD with histidine tag; assay: SPR, BIAcore 2000, antibody captured with anti-human capture kit
[2] = target: T2, hDPEP1-His; assay: as above
[3] = target: T5, hDPEP2 ECD with histidine tag (human, UniProt Q9H4A9 33-463); assay: as above
T5 construct: also called hDPEP2-His; not shown: histidine tag

[4] = target: T3, mDPEP3; assay: ELISA, coated antigen
[5] = target: T1, rat DPEP3 ECD with histidine tag; assay: ELISA, coated antigen
[6] = target: T5, hDPEP2 ECD with histidine tag; assay: ELISA, coated antigen
[7] = target: T4, human DPEP3 (hDPEP3) protein on the …; assay: flow cytometry, HEK-293T cells overexpressing hDPEP3
Description: The isolated cells were incubated for 30 mins. with anti-DPEP3 antibodies and washed twice in PBS/2% FCS. The cells were incubated for 15 mins. with 50 μL per sample AlexaFluor-647 labeled goat-anti-mouse IgG, Fc fragment specific secondary antibody diluted 1:200 in PBS/2% FCS, washed twice with PBS/2% FCS and re-suspended in PBS/2% FCS with DAPI ([…]). The cells were analyzed on a BD FACS Canto II flow cytometer with anti-DPEP3 antibodies.

T5 sequence (Q9H4A9 33-463): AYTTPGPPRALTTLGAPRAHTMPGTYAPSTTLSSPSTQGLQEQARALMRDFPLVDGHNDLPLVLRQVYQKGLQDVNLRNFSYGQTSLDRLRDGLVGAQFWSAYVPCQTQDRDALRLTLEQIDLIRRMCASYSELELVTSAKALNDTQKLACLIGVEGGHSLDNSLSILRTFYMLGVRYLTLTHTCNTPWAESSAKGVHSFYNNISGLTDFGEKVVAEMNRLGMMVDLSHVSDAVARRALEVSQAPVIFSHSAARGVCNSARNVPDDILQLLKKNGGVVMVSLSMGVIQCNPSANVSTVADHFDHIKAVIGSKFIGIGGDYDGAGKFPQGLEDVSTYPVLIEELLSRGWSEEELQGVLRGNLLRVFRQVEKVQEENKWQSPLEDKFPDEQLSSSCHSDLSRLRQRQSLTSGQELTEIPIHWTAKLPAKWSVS

Binder | binding result [1] | binding result [2] | binding result [3] | binding result [4] | binding result [5] | binding result [6] | binding result [7]
B1 | no binding | no binding | binds | – | – | – | –
B2 | – | – | – | no binding (tested: 1 ug/mL) | no binding (tested: 1 ug/mL) | no binding (tested: 1 ug/mL) | binds
